Tested on: T1, OC[C@@H](O)[C@@H](O[C@@H]1O[C@H](CO[C@H]2OC[C@@H](O)[C@H](O)[C@H]2O)[C@@H](O[C@@H]2O[C@H](CO[C@H]3OC[C@@H](O)[C@H](O)[C@H]3O)[C@@H](O[C@@H]3O[C@H](CO[C@H]4OC[C@@H](O)[C@H](O)[C@H]4O)[C@@H](O)[C@H](O)[C@H]3O)[C@H](O)[C@H]2O)[C@H](O)[C@H]1O)[C@H](O)[C@@H](O)CO
T1 construct: called FvXTH6 by Opazo et al. 2017
Test: radiochemical XET assay, 3H incorporation into xyloglucan, Michaelis-Menten
Type: biochemical, Fragaria vesca
Conditions: acceptor substrate, donor 1% (w/v) tamarind xyloglucan, [3H]XXXGol diluted with unlabelled XXXGol (0-357 μM), labelled compound, general XET assay: 100 mM Na succinate pH 5.5, 25 °C

Work on FvXTH9 (Fragaria vesca subsp. vesca) yielded a Km of 43 µM.

Source: paper PMC8653885, “Higher expression of the strawberry xyloglucan endotransglucosylase/hydrolase genes FvXTH9 and FvXTH6 accelerates fruit ripening” (The Plant Journal, 2019)
